Results on one molecule are retold here after patent US20050203007A1 (REGENTS OF THE UNIVERSITY OF MICHIGAN, published 2005).

The target of assay [1] is T1, secreted, soluble Kex2 (Saccharomyces cerevisiae, UniProt P13134 114-613, limits assumed).
T1 sequence (looked up): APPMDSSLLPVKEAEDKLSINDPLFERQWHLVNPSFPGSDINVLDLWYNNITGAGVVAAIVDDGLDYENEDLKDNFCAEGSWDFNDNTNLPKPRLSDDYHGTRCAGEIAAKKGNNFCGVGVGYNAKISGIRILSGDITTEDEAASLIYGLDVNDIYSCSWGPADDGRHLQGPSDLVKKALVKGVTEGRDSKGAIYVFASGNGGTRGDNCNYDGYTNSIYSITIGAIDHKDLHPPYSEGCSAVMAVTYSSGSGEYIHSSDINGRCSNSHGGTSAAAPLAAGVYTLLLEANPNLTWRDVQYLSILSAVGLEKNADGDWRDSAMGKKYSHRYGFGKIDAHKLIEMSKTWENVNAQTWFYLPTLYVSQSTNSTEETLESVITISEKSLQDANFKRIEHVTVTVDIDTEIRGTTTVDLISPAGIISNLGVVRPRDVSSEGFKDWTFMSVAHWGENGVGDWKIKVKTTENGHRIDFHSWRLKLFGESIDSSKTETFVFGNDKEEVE
Briefly: cell-based or functional assay.

Assay [2] addresses T2, secreted, soluble furin (human, UniProt P09958 108-715, limits assumed). Briefly: cell-based or functional assay.
Assay [3] addresses T3, human PC7 (human, UniProt Q16549 142-667, limits assumed).
T3 sequence (looked up): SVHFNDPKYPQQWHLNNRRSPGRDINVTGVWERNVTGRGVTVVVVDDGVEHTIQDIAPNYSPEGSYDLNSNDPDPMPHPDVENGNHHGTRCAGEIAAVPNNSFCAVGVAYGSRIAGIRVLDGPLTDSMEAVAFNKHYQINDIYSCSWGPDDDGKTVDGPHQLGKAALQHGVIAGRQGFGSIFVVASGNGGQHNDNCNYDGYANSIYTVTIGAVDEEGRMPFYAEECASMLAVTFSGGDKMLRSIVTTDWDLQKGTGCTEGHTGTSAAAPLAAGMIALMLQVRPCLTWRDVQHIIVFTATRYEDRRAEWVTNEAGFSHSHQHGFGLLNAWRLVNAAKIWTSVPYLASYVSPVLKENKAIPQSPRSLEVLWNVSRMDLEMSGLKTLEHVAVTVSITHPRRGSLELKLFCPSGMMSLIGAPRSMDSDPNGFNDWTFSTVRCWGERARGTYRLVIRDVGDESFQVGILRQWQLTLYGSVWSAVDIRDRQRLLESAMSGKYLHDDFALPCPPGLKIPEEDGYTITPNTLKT
Briefly: cell-based or functional assay.

Assay [4] addresses T1, secreted, soluble Kex2. In words: enzyme inhibition, purified variant.
Assay [5] concerns the target T2, secreted, soluble furin. In words: enzyme inhibition, purified variant.
Assay [6] addresses T3, human PC7. Briefly: enzyme inhibition, purified variant.
In assay [7] the target is T1, secreted, soluble Kex2. Briefly: calculated from kon (progress curves) and Ka. Here is the method:
(§1) In some aspects of the present invention, biological application of the eglin c variants of the present invention as inhibitors of processing in vivo depends upon the rate of binding to target enzymes, where it is critical. Therefore, the rate of action of eglin variants with Kex2 and furin was examined by incubating 5×10⁻¹⁰ M enzyme with inhibitor at molar ratios of inhibitor to enzyme ranging from 10 to 80. […] The relationship between kobs and inhibitor concentration was linear. The values of kₒₙ were determined from the slope of such curves, and dissociation rate constants (koff) were calculated (koff=kₒₙ/Kₐ). For R4R1-eglin, koff was calculated to be 2×10⁻⁴s⁻¹ for Kex2, and 3×10⁻⁴s⁻¹ for furin. […] Similarly, the t_{1/2} of the complex of M4R1-eglin with Kex2 was estimated to be 3 h. For complex of R4K1-eglin with furin, koff was calculated to be 2×10⁻⁴s⁻¹ implying that the koff and t_{1/2} for this complex are similar to those for the complex of R4R1-eglin with furin.

Assay [8] has as its target T2, secreted, soluble furin. Briefly: calculated from kon (progress curves) and Ka. Here is the method: as §1
The target of assay [9] is T1, secreted, soluble Kex2. Briefly: enzyme inhibition, purified variant; Kassoc.
Assay [10] has as its target T3, human PC7. In words: enzyme inhibition, purified variant; Kassoc.
Assay [11] deals with T2, secreted, soluble furin. Briefly: affinity resin, eglin immobilized on Reacti-Gel 6X. As to the method: Resins were synthesized by immobilizing purified M4R1-eglin and R4R1-eglin onto Reacti-Gel 6X (Pierce) using the manufacturer's protocol.
The resins were then used to test binding and elution of furin from these resins. […] Enzyme was eluted with 20 mM NaMES (pH 6.0) with approximately 90% yield. Furin binding capacity to the R4R1-eglin Resin was 10-fold higher relative to the M4R1-eglin Resin, but furin was not eluted by dropping pH. Instead, furin bound to the R4R1-eglin column was eluted with buffer containing 2 mM EDTA. 5 mM CaCl₂ was added to restore activity and 85% of the furin activity was recovered. (Unit definition: Release of 1 pmol of AMC/min in a reaction containing […] Boc-Arg-Val-Arg-Arg-MCA, 1 mM CaCl₂ and 20 mM NaMES (pH 7.0) at 37° C.

T2 sequence (P09958 108-715 limits assumed): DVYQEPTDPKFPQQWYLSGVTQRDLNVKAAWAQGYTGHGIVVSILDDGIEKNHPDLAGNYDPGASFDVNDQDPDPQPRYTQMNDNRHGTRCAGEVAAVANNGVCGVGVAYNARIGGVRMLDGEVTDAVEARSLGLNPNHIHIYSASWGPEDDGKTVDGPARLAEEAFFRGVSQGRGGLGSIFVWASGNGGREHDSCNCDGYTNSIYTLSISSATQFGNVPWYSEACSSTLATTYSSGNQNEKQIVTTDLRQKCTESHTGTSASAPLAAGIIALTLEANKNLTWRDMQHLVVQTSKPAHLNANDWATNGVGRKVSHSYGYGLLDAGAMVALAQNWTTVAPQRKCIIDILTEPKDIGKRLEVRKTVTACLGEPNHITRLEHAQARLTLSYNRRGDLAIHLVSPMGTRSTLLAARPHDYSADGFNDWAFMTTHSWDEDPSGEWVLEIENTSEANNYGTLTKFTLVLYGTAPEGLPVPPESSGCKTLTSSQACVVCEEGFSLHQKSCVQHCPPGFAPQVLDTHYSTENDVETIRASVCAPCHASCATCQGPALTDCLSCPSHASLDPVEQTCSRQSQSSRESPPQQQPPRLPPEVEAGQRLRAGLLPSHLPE

B1: R4R1-eglin (designed binder)
chain: SMGSELKSFPEVVGKTVDQAREYFTLHYPQYDVYFLPEGSRVTRDLRYNRVRVFYNPGTNVVNHVPHVG
notes: N-terminal Met removed; also called Tyr49-R4R1-; D33Y49
Broadly, the Ki is the equilibrium dissociation constant of an inhibitor or competing ligand from its target. Broadly, the koff is a measure of how fast the partners let go of each other. Take B1: the “% inhibition of enzyme in rapid protease inhibition assay” value in the assay with secreted, soluble Kex2 [1] was found to be 60%; with secreted, soluble furin [2], 60%; with human PC7 [3] it was 70%. Besides, the inhibition constant Ki came out at 0.91 nM with secreted, soluble Kex2 [4]; 2.5 nM in the assay with secreted, soluble furin [5]; 1.3 nM with human PC7 [6]. Further, the koff is 0.0002 s⁻¹ with secreted, soluble Kex2 [7] and 0.0003 s⁻¹ with secreted, soluble furin [8]. Also, the Ka with secreted, soluble Kex2 [9] amounted to 1.1e+09 M⁻¹; in the assay with human PC7 [10], 7.7e+08 M⁻¹. In the assay with secreted, soluble furin [11], the “furin binding capacity of the resin relative to the M4R1-eglin Resin” value was determined as 10 fold.
